Experimental data as given in patent US12134663B2, “Cationic peptides for activating Lck” (Interk Peptide Therapeutics Limited, priority 2018, dated 2024).
Entries after “also recorded” stand apart in the source; their conditions may differ. Where a SMILES comes first, the peptide text is derived from it. Where no end group is shown, it is not given here. [ ]: non-standard residue; d: D form. ξ: configuration not given here. ξGly(decyl) = CCCCCCCCCCC(N)C(=O)O; 2Adod = 2-amino-dodecanoic acid

What was measured:
wild-type Jurkat cells = test: IL-2 secretion in stimulated wild-type Jurkat cells (ELISA); format: cell-based, human; settings: biotinylated anti-CD3, anti-CD28, avidin; 48 h exposure
Experimental: In brief, wild-type Jurkat cells (an immortalised line of human T lymphocyte cells) were stimulated by exposure to biotinylated anti-CD3 antibody in the presence of anti-CD28 antibody and avidin. During the culture period (48 hours or 72 hours) cells were exposed to test polypeptides. Cell supernatant was assayed for IL-2 at the end of 48 or 72 hours using a standard commercially available ELISA kit as described above.
In brief, cells were seeded at 1 million cells per well (12 well plate, 2 mL volume) and stimulated with Biotin-CD3, CD28, and avidin (5:5:1.25 μg). The cells were then treated with IK14804, and then incubated for 48 hours at 37° C. The supernatant (100 uL, n=3), was then analyzed for IL-2 content.
In brief, wild-type Jurkat cells (am immortalised line of human T lymphocyte cells) were stimulated by exposure to biotinylated anti-CD3 antibody in the presence of anti-CD28 antibody and avidin. Cells were seeded at 1 million cells per well (12 well plate, 2 mL volume) and stimulated with Biotin-anti-CD3, anti-CD28, and avidin (5:5:1.25 μg). Cells were treated with the test peptides and then incubated for 48 hours at 37° C. The supernatants (100 ul, n=3), were then analysed for IL-2 and IL-12 content. During the culture period (48 hours) cells were exposed to test polypeptide RSKAKNPLYR-(2Adod)4-NH2 (SEQ ID NO: 128). Cell supernatant was assayed for IL-2 and IL-12 at the end of 48 hours using standard commercially available ELISA kit as described above.

Lck [1] = biological target: T1, Lck (Homo sapiens, UniProt P06239); test: In vitro Lck activation kinase study (Eurofins); format: biochemical; settings: for Lck activation (in words): peptide 1 μM where stated
T1 construct: purchased Eurofins Pharma Discovery Services UK Limited
Experimental: The ability of polypeptides of the present invention to activate Lck was examined in vitro. Lck is member of the Src family of tyrosine kinases. […] All results in are percentage Lck activity relative to control (100%).
Test polypeptides were assessed at a concentration of 1.0 μM.
The ability of polypeptides of the present invention to activate Src family kinases was examined in vitro. Kinase activation studies utilising peptides were carried out as described in Example 1, and all kinase activity values are shown as percentage relative to control.
The ability of polypeptides comprising both lysine and arginine to activate Lck in vitro was examined. Lck activation studies utilising peptides were carried out as described in Example 1, and all kinase activity values are shown as percentage relative to control.

Lck [2] = biological target: T1, Lck; test: Lck Activity above control (1 µM) | Lck
Experimental: (§1) Table printed on a drawing sheet, FIG. 2
Head of the field: Lck Activity above control (1 µM) | Lck
(§2) First copying reader's note: Kinase activity above control for each Src family kinase at 1 µM peptide; the cell for IK00800/Fgr is printed as '%' without a digit.
Where the first naming reader finds the target: head: Lck Activity above control (1 µM) | Lck

Fgr = test: Lck Activity above control (1 µM) | Fgr
Experimental: as §1
Head of the field: Lck Activity above control (1 µM) | Fgr
as §2
Where the first naming reader finds the target: head: Lck Activity above control (1 µM) | Fgr

K562 cells = test: Specific cytotoxicity of Calcein-AM stained K562 cells in PBMC co-culture; format: cell-based; settings: PBMC pre-treated 0.08-1.25 μM 48 hrs, 5:1 ratio, 4 hrs; greater than IFN-α 2A; data not shown
Experimental: In brief, PBMC were incubated for 48 hrs then co-cultured together with Calcein AM stained K562 cells stimulated with or without human recombinant IFN-α 2A (5 ng/mL) for 4 hrs. Supernatants were assessed for Calcein green fluorescence intensity using the GloMax® Discover and percentage specific cytotoxicity was calculated. Data shown indicates mean percentage specific cytotoxicity +/− SEM, n=4. Data were analysed by paired t test in comparison to the vehicle control, *p<0.05.
PBMC were also pre-treated with or without the Lck activating polypeptides RSKAKNPLY-RRRRRRRRR (SEQ ID NO: 24, IK14800), RVKVKVVVV-RRRRRRRRR (SEQ ID NO: 58, IK15800), RSKAKNPLY-RRRRRRRRR-(2Adod)4-NH2 (SEQ ID NO: 65, IK14804) and RVKVKVVVV-RRRRRRRRR-(2Adod)4-NH2 (SEQ ID NO: 66, IK15804) (0.08-1.25 μM) for 48 hrs, then co-cultured with Calcein AM stained K562 cells at a 5:1 ratio and incubated for a further 4 hrs. Supernatants were assessed for Calcein green fluorescence intensity using the GloMax® Discover and percentage specific cytotoxicity was calculated. Data shown indicates mean percentage specific cytotoxicity +/− SEM, n=4. Data were analysed by repeated measures two-way ANOVA with Holm-Sidak's post-test comparing peptide treatment with vehicle control, *p<0.05, **P<0.01, ***P<0.001, ****p<0.0001.

Lck(h) = biological target: T2, Lck(h) (Homo sapiens, UniProt P06239); test: Western blot of Lck phosphorylation (4G10 and anti-pY394 antibodies); format: biochemical; settings: peptide 1 and 10 μM, with ATP, 40 minutes
T2 construct: purchased Eurofins Pharma Discovery Services UK Limited
Experimental: Western blot studies were performed by Eurofins Pharma Discovery Services UK Limited (Dundee, United Kingdom). […] Reactions were allowed to proceed for 40 minutes at room temperature before being stopped by the addition of SDS-sample buffer. In each case the Lck enzyme was diluted to yield 20 ng per 25 μl reaction. Appropriate controls in the absence of compound and peptide were also run as well as an untreated sample of both the Lck(h) and Lck(h) activated kinases. The resulting samples were then subjected to SDS-PAGE and western blot analysis using the antibodies 4G10 (anti-phospho-tyrosine antibody) (see FIG. 3) and anti-pY394 Lck (R&D Systems MAB7500) (see FIG. 2). An additional blot using the secondary detection antibody (anti-mouse-HRP) was also performed. The membranes were stained by Ponceau S to verify sample loading and effective protein transfer. The 4G10 antibody is a general anti-phospho-tyrosine antibody and there are several tyrosine residues in Lck but only one auto-phosphorylating tyrosine residue, i.e., at position Y394. […] Samples were as follows (numbers correspond to the lanes on the gel): • 1. Molecular weight markers • 2. Standard Lck • 3. Standard Lck+peptide substrate+ATP (no test peptide) • 4. Standard Lck−peptide substrate+ATP (no test peptide) • 5. Standard Lck+ATP+10Arg peptide (SEQ ID NO: 7, IK00100; 1 μM) (no peptide substrate) • 6. Standard Lck+ATP+10 Arg peptide (SEQ ID NO: 7, IK00100; 10 μM) (no peptide substrate) • 7. Standard Lck+ATP+8 Arg peptide (SEQ ID NO: 4, IK00800; 1 μM) (no peptide substrate) • 8. Standard Lck+ATP+8 Arg peptide (SEQ ID NO: 41K00800; 10 μM) (no peptide substrate) • 9. 10 Arg (SEQ ID NO: 7, IK00100) (10 μM) (test peptide only) • 10. 8 Arg (SEQ ID NO: 4, IK00800) (10 μM) (test peptide only)
The steps of the western blot protocol were as below: • SDS-PAGE gel: 50 minutes at 200V • Western blot transfer: 90 minutes at 25V • Membrane: Nitrocellulose Pre-Cut Blotting Membranes 0.2 μm pore size (LC2000 (Life Tech)) • Ponceau stain: 0.1% Ponceau S (w/v) in 5% acetic acid • The membrane was blocked with 10 mL PBST and 10% BSA for 1 hour before application of primary and secondary antibodies. Primary Antibodies: • 1. Anti-4G10 (Millipore 05-777) 1/1000 in PBST with overnight incubation at 4° C. followed by washing with 4×20 mL PBST. • 2. Anti-pY394 Lck (R&D Systems) 1/2500 in PBST with overnight incubation at 4° C. followed by washing with 4×20 mL PBST. Secondary Antibody:
Anti-mouse-hrp (Sigma A5278) 1/5000 in PBST followed by washing with 4×20 mL PBST for 5 hours on a spiral shaker at room temperature. Detection was performed via SuperSignal ELISA Pico Chemiluminescent Substrate—37070 (Pierce).

T1 sequence (P06239 whole entry): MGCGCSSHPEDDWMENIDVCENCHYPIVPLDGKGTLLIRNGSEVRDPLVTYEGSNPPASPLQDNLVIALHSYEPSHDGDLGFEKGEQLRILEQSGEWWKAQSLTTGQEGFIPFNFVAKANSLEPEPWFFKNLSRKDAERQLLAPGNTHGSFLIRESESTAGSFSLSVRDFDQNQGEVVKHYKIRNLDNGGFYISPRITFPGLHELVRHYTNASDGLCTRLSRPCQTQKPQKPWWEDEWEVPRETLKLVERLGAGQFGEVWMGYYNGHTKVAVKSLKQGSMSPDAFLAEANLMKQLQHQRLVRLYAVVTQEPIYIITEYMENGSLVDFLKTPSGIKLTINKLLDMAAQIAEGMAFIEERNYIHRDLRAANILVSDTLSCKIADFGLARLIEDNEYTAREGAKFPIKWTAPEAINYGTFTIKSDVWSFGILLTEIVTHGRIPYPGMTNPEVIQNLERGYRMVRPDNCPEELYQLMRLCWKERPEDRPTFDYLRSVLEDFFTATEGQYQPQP
T2 sequence (P06239 whole entry): as above

Molecule: RSKAKNPLY [IK94000]
- IL-2 secretion relative to control (wild-type Jurkat cells): increase IL-2 secretion
- Lck activation (in words) (Lck [1]): no Lck activation
- Lck activation (in words) (Lck [1]; listed as IK09400): do not activate Lck

Molecule: RRRRRRRR [IK00800] [listing 1 of 2 here]
- Lck Activity above control (1 µM) | Lck (Lck [2]): 126%

Molecule: RVKVKVVVV-RRRRRRRRR (RVKVKVVVVRRRRRRRRR) [IK15800]
- Lck Activity above control (1 µM) | Lck (Lck [2]): 593%
- Lck Activity above control (1 µM) | Fgr (Fgr): 0%

Molecule: RRRRRRRRRR [IK00100] [listing 1 of 2 here]
- Lck Activity above control (1 µM) | Lck (Lck [2]): 389%
- Lck Activity above control (1 µM) | Fgr (Fgr): 0%

Molecule: HHHHHHHHHH [10His]
- Lck Activity above control (1 µM) | Lck (Lck [2]): 0%
- Lck Activity above control (1 µM) | Fgr (Fgr): 0%

Molecule: CCCCCCCCCCC(NC(=O)C(CCCCCCCCCC)NC(=O)C(CCCCCCCCCC)NC(=O)C(CCCCCCCCCC)NC(=O)[C@H](CCCNC(=N)N)NC(=O)[C@H](CCCNC(=N)N)NC(=O)[C@H](CCCNC(=N)N)NC(=O)[C@H](CCCNC(=N)N)NC(=O)[C@H](CCCNC(=N)N)NC(=O)[C@H](CCCNC(=N)N)NC(=O)[C@H](CCCNC(=N)N)NC(=O)[C@H](CCCNC(=N)N)NC(=O)[C@H](CCCNC(=N)N)NC(=O)[C@H](Cc1ccc(O)cc1)NC(=O)[C@H](CC(C)C)NC(=O)[C@@H]1CCCN1C(=O)[C@H](CC(N)=O)NC(=O)[C@H](CCCCN)NC(=O)[C@H](C)NC(=O)[C@H](CCCCN)NC(=O)[C@H](CO)NC(=O)[C@@H](N)CCCNC(=N)N)C(N)=O (some centres unmarked) [IK14804, RSKAKNPLYR-RRRRRRRR-(2Adod)4-NH2] (H-RSKAKNPLYRRRRRRRRR[ξGly(decyl)][ξGly(decyl)][ξGly(decyl)][ξGly(decyl)]-NH2)
- percentage of specific cytotoxicity (K562 cells): increased the percentage of specific cytotoxicity

Molecule: CCCCCCCCCCC(NC(=O)C(CCCCCCCCCC)NC(=O)C(CCCCCCCCCC)NC(=O)C(CCCCCCCCCC)NC(=O)[C@H](CCCNC(=N)N)NC(=O)[C@H](CCCNC(=N)N)NC(=O)[C@H](CCCNC(=N)N)NC(=O)[C@H](CCCNC(=N)N)NC(=O)[C@H](CCCNC(=N)N)NC(=O)[C@H](CCCNC(=N)N)NC(=O)[C@H](CCCNC(=N)N)NC(=O)[C@H](CCCNC(=N)N)NC(=O)[C@H](CCCNC(=N)N)NC(=O)[C@@H](NC(=O)[C@@H](NC(=O)[C@@H](NC(=O)[C@@H](NC(=O)[C@H](CCCCN)NC(=O)[C@@H](NC(=O)[C@H](CCCCN)NC(=O)[C@@H](NC(=O)[C@@H](N)CCCNC(=N)N)C(C)C)C(C)C)C(C)C)C(C)C)C(C)C)C(C)C)C(N)=O (some centres unmarked) [IK15804, RVKVKVVVVR-RRRRRRRR-(2Adod)4-NH2] (H-RVKVKVVVVRRRRRRRRR[ξGly(decyl)][ξGly(decyl)][ξGly(decyl)][ξGly(decyl)]-NH2)
- percentage of specific cytotoxicity (K562 cells): increased the percentage of specific cytotoxicity

Molecule: RRRRRRRR [IK00800] [listing 2 of 2 here]
- phosphorylation at Y394 of Lck (anti-pY394 antibody) (Lck(h); listed as 8 Arg): significant increase in the level of phosphorylation
- level of phosphorylation on Lck (anti-phospho tyrosine 4G10 antibody) (Lck(h); listed as 8Arg): significant increase in the level of phosphorylation; also recorded: increased with increasing concentrations
- phosphorylation at Y394 of Lck (anti-pY394 antibody) (Lck(h); listed as 8Arg): Increased auto-phosphorylation was associated with increasing concentration

Molecule: RSKAKNPLYR (RSKAKNPLYR-{2Adod-2Adod-2Adod-2Adod-NH2}) [IK14000]
- IL-2 secretion relative to control (wild-type Jurkat cells): increase IL-2 secretion
- Lck activation (in words) (Lck [1]): do not activate Lck
- Lck activation (in words) (Lck [1]; listed as RSKAKNPLYR): no Lck activation

Molecule: RVKVKVVVVRRRRRRRRR-NH2 [IK15800, RVKVKVVVV-RRRRRRRRR]
- percentage of specific cytotoxicity (K562 cells): increased the percentage of specific cytotoxicity

Molecule: RRRRRRRRRR [IK00100] [listing 2 of 2 here]
- phosphorylation at Y394 of Lck (anti-pY394 antibody) (Lck(h); listed as 10 Arg): significant increase in the level of phosphorylation
- level of phosphorylation on Lck (anti-phospho tyrosine 4G10 antibody) (Lck(h); listed as 10Arg): significant increase in the level of phosphorylation; also recorded: increased with increasing concentrations
- phosphorylation at Y394 of Lck (anti-pY394 antibody) (Lck(h); listed as 10Arg): Increased auto-phosphorylation was associated with increasing concentration

Molecule: RSKAKNPLYRRRRRRRRR-NH2 [IK14800, RSKAKNPLY-RRRRRRRRR-NH2]
- percentage of specific cytotoxicity (K562 cells): increased the percentage of specific cytotoxicity
- Lck activation (Lck [1]; peptide 1 μM, relative to control): 496%

Molecule: RSKAKNPLY-RRRRRRRRR-NH2 (RSKAKNPLYRRRRRRRRR-NH2) [IK14800]
- Lck Activity above control (1 µM) | Lck (Lck [2]): 578%
- Lck Activity above control (1 µM) | Fgr (Fgr): 0%
